The chains are these.
B1: Peptide modulator of HGPRBMY23 LFASSDWSSFPVLVF (peptide)
peptide: LFASSDWSSFPVLVF
modifications: also: synthetic versions N-acetylated, C-terminal amide, also phage-displayed
notes: Synthetic versions are described as N-acetylated peptides made on Knorr amide resin (C-terminal amide)
B2: Peptide modulator of HGPRBMY23 FVGTFDWQSYPLLSF (peptide)
peptide: FVGTFDWQSYPLLSF
modifications: not fully specified (N-terminus, C-terminus)
notes: as for B1
B3: Peptide modulator of HGPRBMY23 SRVSGAKVWFLSNWS (peptide)
peptide: SRVSGAKVWFLSNWS
modifications: also: synthetic versions N-acetylated, C-terminal amide, also phage-displayed
notes: as for B1

Ends that are not written are not given here.

T1 sequence (Q96P68 whole entry): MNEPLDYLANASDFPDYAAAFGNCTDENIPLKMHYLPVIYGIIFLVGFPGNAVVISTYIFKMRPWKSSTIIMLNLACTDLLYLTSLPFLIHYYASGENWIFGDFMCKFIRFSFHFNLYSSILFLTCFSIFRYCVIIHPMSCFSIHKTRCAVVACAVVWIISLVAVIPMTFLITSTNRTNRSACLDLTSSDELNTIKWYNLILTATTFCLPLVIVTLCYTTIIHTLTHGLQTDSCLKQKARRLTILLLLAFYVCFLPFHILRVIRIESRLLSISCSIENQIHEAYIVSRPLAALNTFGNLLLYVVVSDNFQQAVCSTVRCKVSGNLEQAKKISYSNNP

The assay concerns the target T1, HGPRBMY23 polypeptide (novel human G-protein coupled receptor) (human, UniProt Q96P68 1-337).
T1 construct: For phage panning it was expressed on CHO-K1 cells from the pcDNA3.1 Hygro-HGPRBMY23 construct; For immunohistochemistry it was the native protein in paraffin-embedded, formalin-fixed tissue sections; also called GPCR92
Briefly: phage display panning on CHO-K1 cells transfected with HGPRBMY23, after preadsorption on integrin and parental cells. On the procedure:
Typically, this corresponded to one P175 flask with near-confluent growth. A similar number of parental cells were grown for preadsorption. One day prior to panning, two or three 96-well Immulon plates were coated integrin. Plates were coated overnight at 4° C. in NaHCO₃, pH 9.5, with ˜50 ng of αVβ3 integrin (Chemicon; Cat. #CC1020) per well per library.
On the day of panning, growth medium was discarded and cells were washed with 10 ml PBS by allowing the buffer to flow over the cells. The PBS was removed and 10 ml Tris-EDTA detaching buffer (Gibco Cat. #13150-016; no trypsin) was added for 2 min. Plates were tapped and/or pipetted up and down to detach cells. This was done quickly to minimize the exposure of the cells to this reagent. Cells were pelleted by centrifugation at 3K, and then washed with 20 ml PBS. Cells were resuspended cells in PBS with 2% milk blocking agent plus protease inhibitor (EDTA-free; Roche Cat. #1 873 580). For each library, cell suspensions of ˜500 ul were used. Cells were blocked for 30-60 min with gentle rocking at room temperature. The integrin-coated wells were washed 3× in PBST, then blocked with 2% BSA in PBS for 30 min or more. To preadsorb against integrin, input phage was added to the integrin-coated wells, and incubated for 30 min or more.
At this stage, the blocked parental cells were divided into the required number of aliquots (500 ul aliquot/library). The phage supernatants were added from the integrin-preadsorption step. Preadsorption against the parental cells was carried out for 30 min or more with gentle rocking. The blocked transfected cells were divided into the required number of aliquots (500 ul aliquot per library). The transfected cells were pelleted, and the supernatant was discarded. The phage supernatants from the two preadsorption steps were added, and cells were incubated with gentle rocking for 2 h or more. Cells were washed 6-8×with PBST at 5 min intervals. Each wash was performed by gently pipetting the cells up and down, and cells were centrifuged at low speed. […]
In the case of B1, the binding result is “binds”. Turning to B2, the binding result was “binds”.

As for B3, the binding result is on record as “binds”.

The record behind these values is patent US20030224458A1 (published 2003).
